In patent publication US6887844 (dated 2005):

Key:
[1] = biological target: NCAM on cells (primary hippocampal neurones; NCAM-140 on transfected fibroblasts) (rat) (UniProt P13596); experiment: cell-based or functional assay
[2] = biological target: NCAM Ig2 domain, recombinant, produced in Pichia pastoris (rat) (UniProt P13596); experiment: NMR titration, 14 points, 15N-labelled domain-2 (1.0 mM) titrated with unlabelled domain-1, chemical shifts of 10 residues fitted
[3] = biological target: the molecule itself; experiment: gel filtration chromatography, self-association

| Molecule | binding result [3] | also measured |
| --- | --- | --- |
| NCAM Ig2 domain, recombinant, produced in Pichia pastoris (from UniProt P13596 117-208) (ligand) | – | concentration of maximal neuritogenic effect, primary hippocampal neurones on fibronectin [1]: 0.54 µM |
| NCAM Ig1 domain, recombinant, produced in Pichia pastoris (Ig1 PP) (from UniProt P13596 20-116) (receptor) | – | Kd [2]: 2500 µM |
| NCAM (20-208) with three mutations in the domain-1 E30A, E35A, K37A (receptor, UniProt P13596 20-208, looked up, Species as for m28; also called first mutant) LQVDIVPSQGAISVGASAFFLCQVAGDAKDKDISWFSPNGEKLSPNQQRISVVWNDDDSSTLTIYNANIDDAGIYKCVVTAEDGTQSEATVNVKIFQKLMFKNAPTPQEFKEGEDAVIVCDVVSSLPPTIIWKHKGRDVILKKDVRFIVLSNNYLQIRGIKKTDEGTYRCEGRILARGEINFKDIQVIV | no binding | – |
| NCAM (20-208) with three mutations in the domain-2 R192A, R196A, E198A (receptor, UniProt P13596 20-208, looked up, Species as for m28; also called second mutant; mutated double domain) LQVDIVPSQGEISVGESKFFLCQVAGDAKDKDISWFSPNGEKLSPNQQRISVVWNDDDSSTLTIYNANIDDAGIYKCVVTAEDGTQSEATVNVKIFQKLMFKNAPTPQEFKEGEDAVIVCDVVSSLPPTIIWKHKGRDVILKKDVRFIVLSNNYLQIRGIKKTDEGTYRCEGAILAAGAINFKDIQVIV | no binding | – |
| NCAM (20-208) with three mutations in the domain-1 E30A, E35A, K37A and three mutations in the domain-2 R192A, R196A, E198A (receptor, UniProt P13596 20-208, looked up, Species as for m28; also called third mutant) LQVDIVPSQGAISVGASAFFLCQVAGDAKDKDISWFSPNGEKLSPNQQRISVVWNDDDSSTLTIYNANIDDAGIYKCVVTAEDGTQSEATVNVKIFQKLMFKNAPTPQEFKEGEDAVIVCDVVSSLPPTIIWKHKGRDVILKKDVRFIVLSNNYLQIRGIKKTDEGTYRCEGAILAAGAINFKDIQVIV | no binding | – |
